Drawing on patent US20140370516, “DIAGNOSIS OF TUBERCULOSIS” (CSIR, published 2014), this text covers binding result and Kd for 7 molecules.

The target of data set [1] is T1, CFP-10.ESAT-6 heterodimer (Mycobacterium tuberculosis, UniProt P9WNK5;P9WNK7 P9WNK5:2-100,P9WNK7:2-95). The experiment in a line: ELONA, 150 nM aptamer; binding abrogated by anti-ESAT-6 mAb. The settings on record: label: biotin. On the procedure:
(§1) The assay was modified from an ELISA protocols for determination of aptamer-protein interactions and has been termed an ELONA. Unique aptamer clones identified by sequencing were tested for their individual binding characteristic to the CFP-10.ESAT-6 heterodimer using an ELONA. Each ssDNA aptamer was prepared using the exonuclease method as described above with minor modifications, in that all aptamers were prepared with the biotinylated forward primer. For each binding assay, 96 well micro-titre plates (Corning, Adcock Ingram) were coated with the CFP-10.ESAT-6 heterodimer in a 10 mM NaHCO₃ buffer pH 8.5 (Sigma) and left overnight at 4° C. The plates were then washed with 1× phosphate buffered saline containing 0.005% Tween 20 (PBS-T) pH7 (Sigma) and blocked with a 5% fat free milk solution for 1 hour at 4° C. The plates were then washed 3 times with a 1×PBS after which 150 nM biotinylated aptamer was added and incubated for 2 hours at room temperature. This was followed by three wash steps with 1×PBS-T and the addition to HRP-conjugated streptavidin (diluted 1:10000 in 1×PBS-T) and incubated for two hours at 37° C. The plates were then washed four more times with 1×PBS-T, after which a final 3,3′,5,5′-tetramethylbenzidine (TMB) detection substrate (Separations) was added. […] The reaction was stopped with a 2 M sulphuric acid solution (Merck), resulting in a colour change from blue to yellow. The plates were read on the MultiSkan Go plate reader (ThermoScientific, AEC-Amersham) at a wavelength of 450 nm. […] Each aptamer was done in triplicate and the repeats were averaged and the standard deviation calculated. Each aptamer was tested twice in triplicate to ensure accuracy. The aptamers were then compared to the aptamer alone control using a Student t-test statistical analysis to obtain the p value for significance.
The antibody competition binding was done using the ELONA method described above with minor modifications.

The target of a further data set is ESAT-6 (monomer) (Mycobacterium tuberculosis, UniProt P9WNK7 P9WNK7:2-95). The experiment in a line: ELONA. The settings on record: label: biotin. On the procedure:
as §1, with “For” for “The assay was modified from an ELISA protocols for determination of aptamer-protein interactions and has been termed an ELONA. Unique aptamer clones identified by sequencing were tested for their individual binding characteristic to the CFP-10.ESAT-6 heterodimer using an ELONA. Each ssDNA aptamer was prepared using the exonuclease method as described above with minor modifications, in that all aptamers were prepared with the biotinylated forward primer. For”
(§2) Selected ssDNA aptamers were tested for binding specificity to the ESAT-6 and CFP-10 monomers. The aptamers were tested for binding using ELONA to CFP-10, ESAT-6, CFP-10.ESAT-6 heterodimer, a CFP-10.ESAT-6 related protein in the ESX3 secretion system (EsxGH complex) and a HIV surface glycoprotein (gp120). EsxGH is an ESAT-6 family related protein that is encoded and secreted by the ESX-3 secretion system and gp120 is a HIV glycoprotein which is unrelated to the Mtb antigens.

Data set [2] has as its target T2, EsxGH heterodimer (ESX-3 secretion system) (UniProt O53692;P9WNK3 O53692:2-97,P9WNK3:1-96).
T2 sequence 1: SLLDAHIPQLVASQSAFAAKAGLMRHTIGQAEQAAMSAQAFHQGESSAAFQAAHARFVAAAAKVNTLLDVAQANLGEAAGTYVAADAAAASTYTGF
T2 sequence 2: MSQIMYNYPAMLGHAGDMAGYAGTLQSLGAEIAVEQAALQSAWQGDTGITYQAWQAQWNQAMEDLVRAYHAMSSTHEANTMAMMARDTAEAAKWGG
The experiment in a line: ELONA. The conditions noted are these: label: biotin. On the procedure:
as §1, with “For” for “The assay was modified from an ELISA protocols for determination of aptamer-protein interactions and has been termed an ELONA. Unique aptamer clones identified by sequencing were tested for their individual binding characteristic to the CFP-10.ESAT-6 heterodimer using an ELONA. Each ssDNA aptamer was prepared using the exonuclease method as described above with minor modifications, in that all aptamers were prepared with the biotinylated forward primer. For”
as §2

Data set [3] concerns the target T3, CFP-10 (monomer) (Mycobacterium tuberculosis, UniProt P9WNK5 P9WNK5:2-100). Kind of data set: ELONA, 150 nM aptamer; SPR also run, Kd not given. The conditions noted are these: label: biotin.
For data set [4], the target named is T3, CFP-10 (monomer). The experiment in a line: SPR; CFP-10 immobilised on CM5 chip. The settings on record: label: biotin. On the procedure: (§3) FIG. 7 illustrates kinetic studies of 5 of the best aptamers. CFP-10 attached to a CM5 chip was used to capture the respective anti-CFP-10.ESAT-6 aptamers. The respective aptamers were injected at different concentrations at a flow rate of 10 μl/min for 5 minutes and allowed to dissociate for 10 minutes;
(§4) To determine the binding affinity of aptamers to the M.tb antigens, all four flow cells on a CM5 chip (BIAcore, Separations Scientific) were activated with EDC:NHS (BIAcore, Separations Scientific). CFP-10 was bound to three of the four flow cells by injecting 50 μl of 50 μg/ml CFP-10 over them. Ethanolamine (BIAcore, Separations Scientific) was then injected over all four flow cells to quench any remaining active sites. Partially bound or unbound protein was removed by a wash with 10 μl of a 10 mM NaOH solution. Different concentrations of the respective aptamers (0 nM, 31 nM, 62 nM, 125 nM, 250 nM, and 500 nM) were randomly injected over all four flow cells at a flow rate of 10 μl/min for 5 minutes. The respective aptamers, were then allowed to dissociate for 10 minutes. […] The evaluation was done using BiaEvaluation Software (BIAcore) to determine the KD values for each flow cell. The average dissociation constant was then determined.
For orientation: In SPR one partner is held on a chip, and binding of the other changes the refractive index at the surface.

Data set [5] has as its target T3, CFP-10 (monomer). Kind of data set: ELONA, 150 nM aptamer. The settings on record: label: biotin.
The target of data set [6] is T3, CFP-10 (monomer). Kind of data set: SPR; CFP-10 immobilised on CM5 chip; also bound in ELONA. The conditions noted are these: label: biotin; three predicted stem-loops. On the procedure: as §3, §4
For data set [7], the target named is T3, CFP-10 (monomer). Kind of data set: ELONA; affinity comparable to 90-mer. The conditions noted are these: two predicted stem-loops.
In data set [8] the target is T1, CFP-10.ESAT-6 heterodimer. The experiment in a line: ELONA; slightly higher affinity than 90-mer (P<0.05). The conditions noted are these: two predicted stem-loops.
In data set [9] the target is T3, CFP-10 (monomer). Kind of data set: SPR; CFP-10 immobilised on CM5 chip, BIAcore 3000. The conditions noted are these: label: biotin; two predicted stem-loops. On the procedure: as §3, §4

For orientation: Kd means the free concentration of one partner at which half of the binding sites on the other are occupied at equilibrium, for simple one-to-one binding.

B1: CSIR 2.15 (ssDNA)
DNA: GCCTGTTGTGAGCCTCCTAACTAATGTGGATGCTGCATCGTTAGTATTTCTAGCATGCAATATAGGCATGCATGCTTATTCTTGTCTCCC
Take B1: the binding result in [1] was “binds”; with ESAT-6 (monomer) it was “no binding”; in data set [2], “no binding”; with CFP-10 (monomer) [3], “binds”.

B2: CSIR 2.2 (ssDNA)
DNA: GCCTGTTGTGAGCCTCCTAACCCGTCTAACGAGATTGGGTCTTCATATGGCTCGAAGCGCGCGGTCAGTTCATGCTTATTCTTGTCTCCC
Turning to B2, the binding result (in the data set with ESAT-6 (monomer); in data set [2]) was “no binding” each time. The molecule also had a Kd with CFP-10 (monomer) [4] of 21.5 nM.

B3: CSIR 2.21 (ssDNA)
DNA: GCCTGTTGTGAGCCTCCTAACACACACGTAGCGCCTTGTTGAAGTATACTCAAAGCATTCTCCACGCGGGCATGCTTATTCTTGTCTCCC
Regarding B3, the binding result in the data set with CFP-10 (monomer) [5] was “binds”; in data set [1] it was “binds”; with ESAT-6 (monomer), “no binding”; in data set [2], “no binding”.

B4: CSIR 2.11 (ssDNA)
DNA: GCCTGTTGTGAGCCTCCTAACCCCATCTTATACGTATATGGACTCATCTCGACCCCCGATAGGCTTGGTACATGCTTATTCTTGTCTCCC
In the case of B4, the binding result (with ESAT-6 (monomer) (three predicted stem-loops); in data set [2] (three predicted stem-loops)) was “no binding” each time. In the data set with CFP-10 (monomer) [6], the Kd is 8 nM.

B5: CSIR 2.19 truncated (77-mer) (ssDNA)
DNA: GCCTGTTGTGAGCCTCCTAACTTCCAATAACGATACTTAAACCTGGTCTTTGCCAGTCAATGATAGCATCATGCTTA
modifications: [none (12 nt removed from the 3' end, parent positions 1-77)]
As for B5, the binding result (with CFP-10 (monomer) [7]; in [8]) was “binds” each time.

B6: CSIR 2.9 (ssDNA)
DNA: GCCTGTTGTGAGCCTCCTAACTCCGGTCTTCAACATGTCCAATCGAACTTCGGCGGAAATCCTTTACCTGCATGCTTATTCTTGTCTCCC
On to B6, for which the binding result was “binds” with CFP-10 (monomer) [5], “binds” in [1], “no binding” with ESAT-6 (monomer) and “no binding” in data set [2].

B7: CSIR 2.19 (ssDNA)
DNA: GCCTGTTGTGAGCCTCCTAACTTCCAATAACGATACTTAAACCTGGTCTTTGCCAGTCAATGATAGCATCATGCTTATTCTTGTCTCCC
Regarding B7, the Kd with CFP-10 (monomer) [9] was 1.6 nM. In addition, the binding result (with ESAT-6 (monomer) (two predicted stem-loops); in [2] (two predicted stem-loops)) was “no binding” each time.
